From the supplement of paper PMC9876800

Tested on: peptide library, one residue held at a place counted from the S/T acceptor
Assay: relative phosphorylation of the sub-library (ratio to the mean residue at this position); higher = residue favoured
Outline: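 Human or orthologue kinase constructs, purified and recombinant, were incubated under kinase-specific conditions in 384-well plates with biotinylated degenerate peptide sub-libraries. Each sub-library fixed one residue at one position around a central Ser/Thr. Incubations lasted 90 min with peptides at 50 μM and 50 μM ATP spiked with γ-32P-ATP, after which spots on streptavidin membranes were phosphorimaged and quantified by densitometry. Relative sub-library phosphorylation is a ratio to the mean residue at that position.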

PRKD2, construct: Full length, human, sequence (Q9BZL6 whole entry, looked up): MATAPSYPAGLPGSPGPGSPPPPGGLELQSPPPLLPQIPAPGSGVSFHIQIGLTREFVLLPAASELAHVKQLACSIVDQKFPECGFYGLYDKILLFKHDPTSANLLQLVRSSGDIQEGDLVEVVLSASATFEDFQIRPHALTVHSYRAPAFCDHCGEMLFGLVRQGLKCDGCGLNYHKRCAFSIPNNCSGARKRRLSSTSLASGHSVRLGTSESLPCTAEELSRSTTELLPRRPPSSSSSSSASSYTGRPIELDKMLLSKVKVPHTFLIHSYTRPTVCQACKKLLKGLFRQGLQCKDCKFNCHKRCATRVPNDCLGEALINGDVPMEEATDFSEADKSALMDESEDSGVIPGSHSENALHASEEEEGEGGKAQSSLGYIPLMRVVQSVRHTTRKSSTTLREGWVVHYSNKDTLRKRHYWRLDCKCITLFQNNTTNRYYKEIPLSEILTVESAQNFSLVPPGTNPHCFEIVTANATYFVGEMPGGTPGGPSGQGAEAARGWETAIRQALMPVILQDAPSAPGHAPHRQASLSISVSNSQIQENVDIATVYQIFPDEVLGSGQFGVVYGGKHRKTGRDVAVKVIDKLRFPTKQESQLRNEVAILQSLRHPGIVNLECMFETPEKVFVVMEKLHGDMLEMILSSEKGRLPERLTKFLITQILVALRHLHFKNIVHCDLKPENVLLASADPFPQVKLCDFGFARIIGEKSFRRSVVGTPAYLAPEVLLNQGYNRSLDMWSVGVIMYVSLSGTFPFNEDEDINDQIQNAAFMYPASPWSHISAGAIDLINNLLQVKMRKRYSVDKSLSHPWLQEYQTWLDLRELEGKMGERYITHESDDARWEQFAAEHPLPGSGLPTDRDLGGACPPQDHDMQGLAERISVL
ALPK1, construct: aa1-474 and aa959-end, human, sequence (Q96QP1 1-474, looked up): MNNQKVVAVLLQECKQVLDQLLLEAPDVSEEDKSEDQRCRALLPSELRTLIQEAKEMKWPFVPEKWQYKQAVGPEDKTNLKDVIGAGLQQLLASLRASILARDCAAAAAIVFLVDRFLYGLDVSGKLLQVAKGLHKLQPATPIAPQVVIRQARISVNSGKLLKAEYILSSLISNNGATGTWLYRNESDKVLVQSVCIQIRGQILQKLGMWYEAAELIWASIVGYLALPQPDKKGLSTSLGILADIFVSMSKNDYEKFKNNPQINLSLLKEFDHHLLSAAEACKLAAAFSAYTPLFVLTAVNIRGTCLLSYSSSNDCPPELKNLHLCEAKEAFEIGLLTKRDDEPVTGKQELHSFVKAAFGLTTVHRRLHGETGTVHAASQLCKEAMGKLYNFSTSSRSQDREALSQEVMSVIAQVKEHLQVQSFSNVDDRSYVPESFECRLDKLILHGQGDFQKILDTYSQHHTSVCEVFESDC
TTBK2, construct: aa1-450, human, sequence (Q6IQ55 1-450, looked up): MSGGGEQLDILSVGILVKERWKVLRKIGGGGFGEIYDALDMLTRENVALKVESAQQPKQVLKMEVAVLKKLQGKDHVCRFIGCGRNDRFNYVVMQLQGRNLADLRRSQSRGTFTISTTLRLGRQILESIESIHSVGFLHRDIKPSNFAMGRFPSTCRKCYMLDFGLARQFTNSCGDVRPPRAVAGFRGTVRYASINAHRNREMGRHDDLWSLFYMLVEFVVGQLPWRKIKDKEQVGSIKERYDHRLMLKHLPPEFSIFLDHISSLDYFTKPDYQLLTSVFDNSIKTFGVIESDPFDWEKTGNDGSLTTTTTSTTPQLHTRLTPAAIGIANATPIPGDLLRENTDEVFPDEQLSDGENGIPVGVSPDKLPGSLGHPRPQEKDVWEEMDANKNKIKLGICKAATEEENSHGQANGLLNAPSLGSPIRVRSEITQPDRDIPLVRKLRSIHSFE

PRKD2, construct: Full length, human (from UniProt Q9BZL6)
relative phosphorylation
Details	at +1	at +2	at +3	at +4	at -1	at -2	at -3	at -4	at -5
A fixed	0.733	0.998	0.83	0.983	0.788	1.13	0.848	1.19	1.26
D fixed	0.55	1.02	0.913	1.22	0.704	0.232	0.153	0.433	0.319
E fixed	0.422	0.622	0.731	0.928	0.452	0.404	0.266	0.885	0.286
F fixed	0.883	0.718	0.749	0.907	0.592	0.592	0.345	0.718	0.788
G fixed	0.986	1.31	1.65	1.43	0.613	0.516	0.679	1.51	0.762
H fixed	0.977	1.06	1	1.15	1.03	0.838	0.658	0.963	0.517
I fixed	0.932	0.434	0.532	0.602	0.402	0.417	0.222	0.593	1.1
K fixed	1.22	1.07	1.11	1.14	2.6	2.73	2.59	1.86	0.788
L fixed	1.1	0.627	0.772	0.675	1.04	0.785	0.28	0.698	2.71
M fixed	1.12	0.71	0.656	0.732	0.886	1.62	0.424	1.13	0.752
N fixed	2.43	2.02	1.44	1.19	1.73	1.06	0.682	0.778	0.634
P fixed	0.399	1.89	2.6	1.42	1.49	0.415	0.992	0.512	1.35
Q fixed	1.42	1.3	1.09	1.28	0.993	2.09	0.981	1.4	1.02
R fixed	1.14	1.01	0.794	0.701	1.71	2.34	6.73	2.16	1.8
V fixed	0.902	0.49	0.592	0.756	0.571	0.73	0.265	0.714	1.62
W fixed	0.759	0.916	0.736	1.01	0.545	0.474	0.438	0.663	0.515
Y fixed	1.02	0.804	0.796	0.889	0.857	0.625	0.443	0.79	0.78
pThr fixed	0.67	0.623	0.888	0.916	0.194	0.233	0.213	0.628	0.39
pTyr fixed	0.699	0.574	0.946	0.864	0.781	0.31	0.215	0.523	0.775

ALPK1, construct: aa1-474 and aa959-end, human (from UniProt Q96QP1)
relative phosphorylation
Details	at +1	at +2	at +3	at +4	at -1	at -2	at -3	at -4	at -5
A fixed	0.392	0.063	0.503	1.02	0.957	1.29	0.868	0.65	0.43
D fixed	0.704	0.889	1.31	1.21	2.26	1.87	2.74	2	1.61
E fixed	3.35	2.03	1.22	1.27	1.9	0.573	1.83	1.77	1.83
F fixed	0.991	1.09	1.36	1.05	0.862	0.626	0.757	1.02	0.92
G fixed	0.404	0.704	0.365	0.933	0.798	0.731	0.687	0.798	0.812
H fixed	1.15	1.07	1	1.37	0.779	0.466	1.21	1.24	0.763
I fixed	1.27	1.14	0.752	0.378	1.16	1.02	0.608	0.848	1.02
K fixed	0.774	1.49	1.08	1.09	1.13	0.599	0.905	1.31	0.94
L fixed	0.474	1.11	1.09	0.718	0.704	1.29	0.392	0.763	0.67
M fixed	1.63	1.38	1.49	0.671	0.979	1.13	0.9	0.651	1.14
N fixed	0.75	1.19	0.97	1.36	0.572	0.718	1.11	0.874	1.08
P fixed	0.39	1.01	0.781	1.16	0.805	1.54	0.952	1.02	0.971
Q fixed	1.01	0.617	0.852	0.914	0.933	1.31	0.826	0.758	1.16
R fixed	1.23	0.649	0.935	0.774	0.731	0.797	1.02	1.09	1.28
V fixed	0.557	1.08	1.06	0.914	0.569	1.09	0.694	0.547	0.996
W fixed	0.811	1.01	1.06	1.1	1.04	0.771	0.557	0.92	0.613
Y fixed	1.11	0.478	1.17	1.06	0.826	1.18	0.944	0.741	0.762
pThr fixed	0.485	1.34	1.32	1.94	1.71	1.9	2.27	1.42	1.5
pTyr fixed	1.74	1.33	1.73	2.97	9.01	0.489	1.53	1.85	1.83

TTBK2, construct: aa1-450, human (from UniProt Q6IQ55)
relative phosphorylation
Details	at +1	at +2	at +3	at +4	at -1	at -2	at -3	at -4	at -5
A fixed	0.693	1.88	1.11	1.02	0.912	1.25	0.986	0.998	1.03
D fixed	0.298	0.221	0.968	0.919	0.604	1.91	1.38	1.34	0.944
E fixed	0.913	0.22	1.42	0.928	0.64	1.36	1.2	1.08	0.905
F fixed	1.38	0.907	1.07	0.85	0.951	0.802	0.844	1.11	1.08
G fixed	0.29	0.615	1.21	1.17	0.563	0.964	1.19	1.18	1.28
H fixed	0.878	1.48	1.09	0.983	1.05	0.867	1.18	0.996	1.03
I fixed	1.72	1.07	1.01	0.853	1.24	0.742	0.949	0.881	0.99
K fixed	0.739	0.913	0.707	0.996	1.32	0.67	0.884	1.12	1.15
L fixed	1.5	0.733	1.03	0.822	1.12	1.29	0.807	0.811	0.699
M fixed	1.52	1.38	1.1	1	1.14	0.853	0.972	0.859	0.827
N fixed	0.329	0.553	0.594	0.92	0.942	1.07	1.04	0.841	0.847
P fixed	0.115	0.31	0.495	1.24	0.805	1.35	0.834	0.837	0.981
Q fixed	1.03	0.57	1	0.858	0.741	0.994	0.879	0.818	0.771
R fixed	1.1	1.8	0.801	1.29	1.71	0.743	1.13	1.06	1.41
V fixed	1.42	0.908	1.07	0.75	1.12	0.81	0.75	0.898	0.937
W fixed	1.45	1.91	1.1	1.4	0.93	0.69	0.885	1.08	0.946
Y fixed	1.63	1.54	1.23	0.998	1.22	0.643	1.09	1.1	1.18
pThr fixed	0.576	0.426	0.831	0.97	0.7	2.61	1.78	1.55	1.02
pTyr fixed	1.7	5.77	1.16	0.752	1.02	2.59	2.62	1.84	1.77
